Measured values: patent publication US20170058036A1 (published 2017)

T1: human dual endothelin-1/VEGF signal peptide receptor (DEspR) on intact cells (human, UniProt B0L3A2 1-85)
T1 construct: also called hDEspR; DEAR
T1 sequence: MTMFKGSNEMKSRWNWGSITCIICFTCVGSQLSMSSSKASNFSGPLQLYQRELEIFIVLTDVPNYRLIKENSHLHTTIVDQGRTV


Experiments:
[1] = target: T1, human dual endothelin-1/VEGF signal …; test: saturation binding of AF568-labelled mAb to DEspR+ Panc1 cells, FACS
Method: Saturation binding curves of monoclonal antibody (mAb) binding to DEspR on Panc1 CSCs. […] Specific binding was determined by FACS analysis using 100,000 cells in 0.25 ml containing increasing concentrations of mAbs. Incubations were done at 4° C. for 20 min and immediately subjected to FACS analysis on a BDTM LSRII Flow cytometer. Each data point was performed in duplicate.
Fully human VH5/VK1 has a slightly better Kd than VH3/VK2 fully human composite antibodies. […] (FIG. 16).

[2] = target: rat DEspR on rat neutrophils (rat); test: cell-based or functional assay
[3] = target: rat DEspR on rat neutrophils (rat); test: cell-based or functional assay; remark: listed apart in the source
[4] = target: T1, human dual endothelin-1/VEGF signal …; test: FACS, AF-568-labeled mAb on Panc1 cells
Method: (§1) Binding was quantified by FACS with corresponding isotype labeled antibodies as background controls. […] Furthermore, 6G8 humanized monoclonal antibodies were developed using two different human IgG Fc regions-human IgG1 and hinge-stabilized human IgG4, thus affirming high-affinity binding.
(§2) Neutrophils (50000/well) were incubated in the absence or presence of mAbs at 37° C. × 4 hrs and live cells counted by using Trypan blue. HUVEC-dependent angiogenesis (20,000 cells/well) was performed as described in the presence or absence of mAbs. Number of polygons and number of branch points were determined after 14 hrs of incubation at 37° C. ND, not done, indeterminate, value greater than upper limit of max dose used in these experiments.

[5] = target: T1, human dual endothelin-1/VEGF signal …; test: FACS, binding to DEspR on intact human cells at 4° C
Method: as §1
Binding was determined by FACS analysis.
as §2

Kd [1] [nM] | EC50 [4] [nM] | EC50 [5] [nM] | Binder | Rat Neutrophil survival, IC50 [2] [µg/mL] | Rat activated Neutrophil survival, IC50 [3] [µg/mL]
~33 |  |  | 7C5B2 murine anti-human DEspR monoclonal antibody (antibody, V domains shown, Murine hybridoma antibody raised against the 9-aa N-terminal peptide of DEspR; An IgG2b isotype control was used with it; It was AF568-labelled in the FACS and imaging assays; also called 7C5-murine monoclonal antibody; lead mouse prototype anti-human DEspR monoclonal antibody) VH: QVQLKESGPGLVAPSQSLSITCTVSGFSLKSYAVSWVRQPPGKGLEWLGVIWGDGSTDYHSALISRLSISKDNSKSQFFLRLNSLQTDDTATYYCARGTGTGFAYWGQGTLVTVSA VL: DVVMTQTPLSLPVSLGDQASISCRSSQSLVHSNGNTYLHWYLQKPGQSPKLLIYKVSNRFSGVPDRFSGSGSGTDFTLKISRVEAEDLGIYFCSQCTHIPWTFGGGTNLEIK |  | 
~33 |  |  | 6G8G7 murine anti-DEspR monoclonal antibody (antibody, V domains shown) VH: EVQLQESGGGLVQPGGSLKLSCAASGFDFSRYWMSWVRQAPGKGLEWIGEINPDSSTINYTPSLKDKFIISRDTAKKTLYLQMSKVRSEDTALYYCARHGRGMDYWSQGTSVTVSS VL: DIVLTQTNQIMSASVGDRVSVTCKASQNVDSNVAWYQQKPGHSPKALIYSASYRYSRVPDRITGSGSGTDFTLTITNVQSKDLADYFCQQYHSYPLLAFGAGTKLELKR |  | 
 | 21.1 | 21.1 | 6g8g7-derived IgG4 humanized monoclonal antibody 1 (antibody, Hinge-stabilized (S228P) human IgG4 / kappa, transiently expressed in HEK293; also called 6g8^IgG4 humab1; 6g8IgG4 humab1) heavy: not shown light: DIVLTQSPDILSVSLGERATVNCKASQNVDSNVAWYQQKPGHPPKLLIYSASYRYSRVPDRISGSGSGTDFTLTISNLQAEDVAVYYCQQYHSYPLLAFGAGTKLELKRTVAAPSVFIFPPSDEQLKSGTASVVCLLNNFYPREAKVQWKVDNALQSGNSQESVTEQDSKDSTYSLSSTLTLSKADYEKHKVYACEVTHQGLSSPVTKSFNRGEC | 1.16 | 1.16
 |  |  | IgG1 6G8G7 humanized monoclonal antibody (antibody) heavy: not shown light: DIVLTQSPDILSVSLGERATVNCKASQNVDSNVAWYQQKPGHPPKLLIYSASYRYSRVPDRISGSGSGTDFTLTISNLQAEDVAVYYCQQYHSYPLLAFGAGTKLELKRTVAAPSVFIFPPSDEQLKSGTASVVCLLNNFYPREAKVQWKVDNALQSGNSQESVTEQDSKDSTYSLSSTLTLSKADYEKHKVYACEVTHQGLSSPVTKSFNRGEC | 6.98 | 6.98
